The values below come from patent US20220235344A1, “TRYPSIN VARIANTS WITH IMPROVED ENZYMATIC PROPERTIES” (BIOPHARMA TRANSLATIONSINSTITUT DESSAU FORSCHUNGS GMBH, priority 2018, published 2022).

This test concerns Bz PGGXaaXaaXaaHAG-OH / H-XaaXaaXaaAK(DNP)-OH (recognition sequences YRRH, YMKH, RMKH). Description: Time course of transamidation by A2C8_H39Y/H59Y/E60K/K189D and wild-type trypsin (FIG. 5). It counts as biochemical. The conditions noted are these: comparison value for A2C8. The method, then: FIG. 5: Time course of the product formation for a transamidation reaction catalyzed by the variant A2C8_H39Y/H59Y/E60K/K189D as well as the wild-type Trypsin in correlation to various peptide substrates. Reaction conditions: 100 μM acyl donor (Bz PGGXaaXaaXaaHAG-OH), 200 μM acyl acceptor (H-XaaXaaXaaAK(DNP)-OH), 10 μM trypsin variant A2C8_H39Y/H59Y/E60K/K189D or 2.5 nM anionic rat trypsin II, 100 mM HEPES/NaOH pH 7.8, 0.1 mM ZnCl2, 100 mM NaCl, 10 mM CaCl2, T=30° C. UPLC analysis: Waters Acquity Ultra Performance LC, C18-column, gradient 5-60% acetonitrile, 5 min, detection at 360 nm.
The three substrates with the highest apparent turnover rate for the aminolysis reaction were then used for investigating the synthesis behavior of variant A2C8_H39Y/H59Y/E60K/K189D. In FIG. 5 the time course of product formation for a transamidation reaction catalyzed by variant A2C8_H39Y/H59Y/E60K/K189D with various peptide substrates is illustrated.

B1: A2C8: Trypsiligase II + H40F, A55A, R96E, K97D, L99F, N143E, E151Y, S190V, Q192A, S214G, G219Q, A221T (protein)
chain: IVGGYTCQENSVPYQVSLNSGHFFCGGSLINDQWVVSAAHCHESRIQVRLGEHNINVLEGNEQFVNAAKIIKHPNFDEDTFNNDIMLIKLSSPVKLNARVATVALPSSCAPAGTQCLISGWGETLSSGVNYPDLLQCLDAPLLPQADCEASYPGKITDNMVCVGFLEGGKKVCAGDSGGPVVCNGELQGIVGWGYQCTLPDNPGVYTKVCNYVDWIQDTIAAN
B1: the “product yield at comparable conditions” value was determined as 59%.
